For assay [1], the target named is Endogenous TOP1 of U2OS cells (human (endogenous in U2OS)) (UniProt P11387). In words: proximity ligation.
Assay [2] has as its target Endogenous TOP2A of U2OS cells (human (endogenous in U2OS)) (UniProt P11388). In words: proximity ligation.

Some results are limits rather than exact numbers.

UniProt P11387, sequence (P11387 whole entry): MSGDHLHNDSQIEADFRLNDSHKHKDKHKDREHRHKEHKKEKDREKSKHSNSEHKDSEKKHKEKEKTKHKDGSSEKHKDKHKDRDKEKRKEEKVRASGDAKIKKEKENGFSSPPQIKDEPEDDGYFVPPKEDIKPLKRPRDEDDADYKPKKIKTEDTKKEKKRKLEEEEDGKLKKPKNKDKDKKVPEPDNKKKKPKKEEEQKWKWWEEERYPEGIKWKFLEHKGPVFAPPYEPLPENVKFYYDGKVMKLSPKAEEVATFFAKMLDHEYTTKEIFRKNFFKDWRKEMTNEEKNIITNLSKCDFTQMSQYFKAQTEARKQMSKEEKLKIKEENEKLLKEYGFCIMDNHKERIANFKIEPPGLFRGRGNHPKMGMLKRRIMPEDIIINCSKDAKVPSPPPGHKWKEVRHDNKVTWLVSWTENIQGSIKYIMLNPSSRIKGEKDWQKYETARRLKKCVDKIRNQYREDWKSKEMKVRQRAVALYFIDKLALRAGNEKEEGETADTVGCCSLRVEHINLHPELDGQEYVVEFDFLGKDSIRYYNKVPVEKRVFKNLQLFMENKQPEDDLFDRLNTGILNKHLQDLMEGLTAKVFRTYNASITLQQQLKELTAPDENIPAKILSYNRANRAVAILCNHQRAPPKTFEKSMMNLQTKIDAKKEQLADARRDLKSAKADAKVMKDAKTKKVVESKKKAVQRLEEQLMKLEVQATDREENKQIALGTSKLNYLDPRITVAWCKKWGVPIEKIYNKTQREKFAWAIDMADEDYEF
UniProt P11388, sequence (P11388 whole entry): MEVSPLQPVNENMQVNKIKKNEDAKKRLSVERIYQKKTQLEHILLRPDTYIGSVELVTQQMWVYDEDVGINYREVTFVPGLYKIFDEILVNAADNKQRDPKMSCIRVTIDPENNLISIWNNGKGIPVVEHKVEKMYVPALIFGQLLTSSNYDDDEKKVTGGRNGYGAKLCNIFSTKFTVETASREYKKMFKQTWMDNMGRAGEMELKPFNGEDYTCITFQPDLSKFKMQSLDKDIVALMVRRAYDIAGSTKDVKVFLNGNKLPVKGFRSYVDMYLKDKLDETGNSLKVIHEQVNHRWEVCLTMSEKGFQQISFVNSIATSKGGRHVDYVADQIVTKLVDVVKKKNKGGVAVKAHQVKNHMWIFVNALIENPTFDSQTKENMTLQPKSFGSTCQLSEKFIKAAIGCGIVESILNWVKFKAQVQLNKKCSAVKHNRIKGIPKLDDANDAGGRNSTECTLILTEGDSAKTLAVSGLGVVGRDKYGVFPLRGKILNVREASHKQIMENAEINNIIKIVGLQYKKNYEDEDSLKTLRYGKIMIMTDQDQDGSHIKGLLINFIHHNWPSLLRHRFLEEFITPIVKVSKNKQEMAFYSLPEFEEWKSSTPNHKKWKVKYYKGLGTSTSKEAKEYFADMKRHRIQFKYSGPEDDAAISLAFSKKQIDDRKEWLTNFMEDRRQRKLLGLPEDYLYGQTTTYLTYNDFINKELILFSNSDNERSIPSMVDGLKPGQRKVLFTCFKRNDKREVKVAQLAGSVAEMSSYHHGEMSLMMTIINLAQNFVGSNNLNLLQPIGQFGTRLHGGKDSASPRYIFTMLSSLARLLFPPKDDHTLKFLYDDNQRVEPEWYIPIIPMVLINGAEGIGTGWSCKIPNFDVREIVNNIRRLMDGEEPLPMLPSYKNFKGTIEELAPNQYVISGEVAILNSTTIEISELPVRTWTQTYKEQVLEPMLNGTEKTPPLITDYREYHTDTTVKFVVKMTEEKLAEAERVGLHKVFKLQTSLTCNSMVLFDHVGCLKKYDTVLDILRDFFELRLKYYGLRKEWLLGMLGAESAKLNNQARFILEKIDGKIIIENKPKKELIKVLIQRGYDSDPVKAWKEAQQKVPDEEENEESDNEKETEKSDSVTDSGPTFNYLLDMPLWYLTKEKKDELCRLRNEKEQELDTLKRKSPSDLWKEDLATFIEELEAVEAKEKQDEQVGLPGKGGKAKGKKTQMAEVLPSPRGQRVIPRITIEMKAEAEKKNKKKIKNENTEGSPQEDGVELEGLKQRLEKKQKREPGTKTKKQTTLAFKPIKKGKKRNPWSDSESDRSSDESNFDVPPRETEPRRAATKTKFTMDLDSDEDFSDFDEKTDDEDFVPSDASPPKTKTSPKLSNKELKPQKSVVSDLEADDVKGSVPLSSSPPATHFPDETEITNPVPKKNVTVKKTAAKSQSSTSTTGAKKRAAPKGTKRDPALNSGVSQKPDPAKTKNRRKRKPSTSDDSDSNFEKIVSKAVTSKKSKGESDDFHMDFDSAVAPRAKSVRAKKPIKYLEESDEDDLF

For the substance “Endogenous MYC of U2OS cells (from UniProt P01106 1-454) (natural protein)”, the PLA dots/cell (untreated cells) in assay [1] and in assay [2] was 60 dots/cell each time.
“MYC-EGFP, doxycycline-inducible, in U2OS-MYC-EGFP cells (from UniProt P01106 1-454) (natural protein)”: the PLA dots/cell (with Dox) in assay [1] and in assay [2] was greater than 80 dots/cell throughout.

These data come from PMC8750365.
